Sequences and labels used below:
B1: Hairpin Ribozyme (parent)
chain: GUCCUCUUUCACGUGCGCGUGAAAGAGAGAAGUGAACCAGAGAAACACACGUUGUGGUAUAUUACCUGGUA

The variants in this data set derive from B1. Briefly: self-cleavage, relative activity (ratio to wild type); higher = more cleavage; co-transcriptional.
For the variant C37A A44U, the self-cleavage was 0.109.
Turning to A35G U53G, the self-cleavage stood at 0.955.
Turning to A35G U53C, the self-cleavage came to 0.928.
Regarding A35C A36U, the self-cleavage is 0.606.
On to A35C A36G, for which the self-cleavage came to 0.683.
In the case of G34U C46U it was 0.102; in that of G34U C46G, 0.397.
The figure for A36G U55G is 0.271; for A36G U55C it is 0.324; for A35C G57U it is 0.318.
Take A35C G57C: the self-cleavage was determined as 0.134.
Consider C37A U62G, for which the self-cleavage amounted to 0.127.
Take A36C A64G: the self-cleavage was found to be 0.281.
In the case of A36U U63A, the self-cleavage turned out to be 0.207.
The figure for A36U U63C is 0.172; for A36U U63G it is 0.165.
In the case of A36C G69C it was 0.304; in that of A36U G68C, 0.129; in that of A36U G68A, 0.106.
In the case of A36U C38G, the self-cleavage worked out at 0.0875.
Regarding A35C G56C, the self-cleavage is 0.196.
Turning to G34U G56A, the self-cleavage was determined as 0.788.
Consider A35G C37A, for which the self-cleavage was 0.416.
As for A35G C37G, the self-cleavage was 0.422.
The figure for C37G A71G is 0.341; for A35G G56A it is 0.108.
Take A35G G56U: the self-cleavage was 0.154.
On to A35C C37G, for which the self-cleavage turned out to be 0.282.
As to C37A U63A, the self-cleavage amounted to 0.163.
On to C37A U63C, for which the self-cleavage is 0.131.
The figure for A36G A49U is 0.204; for A35G A49U it is 0.174.
For the variant G34U A44G, the self-cleavage stood at 0.348.
For G34U A44U, the self-cleavage is 0.205.
The figure for A35U G42U is 0.109; for A36C U58A it is 0.391; for A36C U58C it is 0.685.
On to A35C A39G, for which the self-cleavage was found to be 0.591.
Take A35C A39C: the self-cleavage came out at 0.226.
Turning to A35U A59C, the self-cleavage amounted to 0.302.
The figure for A36C A71G is 0.303; for A35C A45G it is 0.083.
Consider A35C A45U, for which the self-cleavage is 0.0921.
C37G A64C: the self-cleavage is 0.136.
On to C37G A64U, for which the self-cleavage turned out to be 0.192.
The figure for A35C A64G is 0.513.
As to A35C A64C, the self-cleavage turned out to be 0.211.
For the variant G34U U63G, the self-cleavage turned out to be 0.261.
Turning to G34U U63C, the self-cleavage is 0.589.
Turning to A35G C46G, the self-cleavage was 0.0878.
Regarding A35G C46U, the self-cleavage came out at 0.145.
In the case of A35C C66A it was 0.293; in that of A35C C66G, 0.159.
In the case of C37A A39G, the self-cleavage was found to be 0.181.
G34U G42U: the self-cleavage was determined as 1.17.
Regarding A35C U52G, the self-cleavage came to 0.728.
For the variant A35C U52C, the self-cleavage came to 1.05.
As to G34C U67C, the self-cleavage worked out at 0.785.
Take A36C C65G: the self-cleavage came to 0.3.
With A35U A64C, the self-cleavage was 0.143.
For the variant G34U G68A, the self-cleavage is 1.17.
For A36U A49U, the self-cleavage was found to be 0.124.
For A36U G42C, the self-cleavage turned out to be 0.234.
Turning to A35G G42C, the self-cleavage came out at 0.231.
With A35G G42A, the self-cleavage was 0.174.
Take C37G G54C: the self-cleavage came to 0.149.
The figure for C37G C65G is 0.225.
Regarding A36C A49U, the self-cleavage turned out to be 0.203.
The figure for A36U G54C is 0.278.
A36U G54A: the self-cleavage was 0.212.
With G34U A45G, the self-cleavage is 0.472.
In the case of A36C U53A, the self-cleavage is 0.635.
A36C U53G: the self-cleavage turned out to be 0.371.
Consider C37A C46A, for which the self-cleavage is 0.179.
Regarding C37A C46G, the self-cleavage stood at 0.0923.
A35G G54A: the self-cleavage was 0.477.
In the case of C37G C48U it was 0.144; in that of A36U C48A, 0.0449; in that of A35C G51U, 1.24.
Consider A35U G68U, for which the self-cleavage amounted to 0.177.
A35U G68C: the self-cleavage worked out at 0.206.
In the case of A35U U60A it was 0.426; in that of A35U C66G, 0.0865.
Take A35U C66U: the self-cleavage turned out to be 0.151.
The figure for A35C C48U is 0.101.
Consider A36G G69U, for which the self-cleavage is 0.237.
In the case of A36G G69A, the self-cleavage was 0.414.
With A35G A45U, the self-cleavage amounted to 0.25.
Turning to A36U U55G, the self-cleavage was determined as 0.163.
On to A36U U55C, for which the self-cleavage turned out to be 0.124.
The figure for A36U A61C is 0.196.
In the case of A36G G68C, the self-cleavage turned out to be 0.211.
A35C G40C: the self-cleavage is 0.184.
Take A35C A49U: the self-cleavage came to 0.119.
In the case of C37A A64G it was 0.187.
As for A36C A39C, the self-cleavage was 0.216.
As for C37A C38G, the self-cleavage was 0.31.
For A35G C65G, the self-cleavage was determined as 0.221.
Consider A35G C65U, for which the self-cleavage came to 0.227.
In the case of G34C U62G it was 0.175.
In the case of G34C U62A it was 0.471; in that of G34U A43G, 0.125; in that of C37G G57C, 0.21.
As for A35G U52A, the self-cleavage is 1.02.
In the case of A36C A41G it was 0.894.
Regarding G34U A49U, the self-cleavage worked out at 1.
For G34U A49C, the self-cleavage is 0.433.
On to G34U A49G, for which the self-cleavage worked out at 1.49.
A35G G40C: the self-cleavage is 0.175.
Consider C37A U52A, for which the self-cleavage turned out to be 0.484.
Consider A36U U53G, for which the self-cleavage came out at 0.224.
On to A36C A61U, for which the self-cleavage amounted to 0.162.
For the variant C37G A49C, the self-cleavage stood at 0.348.
In the case of A35G U58G it was 0.881.
With A35G A61U, the self-cleavage was 0.245.
On to A35G A61C, for which the self-cleavage came to 0.0992.
In the case of G34U C50G it was 1.12.
In the case of G34U C50U it was 0.913; in that of A36C G42C, 0.245; in that of G34U C38A, 0.658.
In the case of C37G A44U it was 0.118; in that of C37G A44G, 0.185.
As for C37A G69A, the self-cleavage is 0.434.
In the case of G34U A64U it was 0.883.
Take A36G G42U: the self-cleavage is 0.227.
In the case of A35C A71C, the self-cleavage turned out to be 1.27.
Consider C37G C38U, for which the self-cleavage was 0.128.
Turning to G34U G57U, the self-cleavage was found to be 1.28.
On to A35U A61C, for which the self-cleavage was 0.265.
A35G A64U: the self-cleavage came out at 0.129.
The figure for C37A A45U is 0.169; for A35C A47C it is 0.564; for A36G C38G it is 0.127.
C37A U60C: the self-cleavage was found to be 0.337.
As for A36U C37G, the self-cleavage came to 0.149.
For C37A U67C, the self-cleavage was found to be 0.0944.
As for A35C U53A, the self-cleavage was found to be 0.995.
In the case of A35C U53C, the self-cleavage amounted to 0.835.
In the case of A36U U58C it was 0.719; in that of A36U U58G, 0.417; in that of A36G C37U, 0.0788.
In the case of A35C U70G it was 0.676; in that of A35C U70A, 0.805.
A36C U62A: the self-cleavage was 0.0722.
A35U C65U: the self-cleavage is 0.223.
For A35U C65G, the self-cleavage stood at 0.204.
Consider A36C G57U, for which the self-cleavage is 0.264.
In the case of A35C C38A it was 0.201.
Regarding G34U C65U, the self-cleavage amounted to 1.3.
Turning to G34U C65A, the self-cleavage is 1.57.
For the variant G34C U52A, the self-cleavage stood at 1.66.
Consider G34U G54U, for which the self-cleavage amounted to 1.26.
As to G34U G54C, the self-cleavage worked out at 1.15.
As for A35G C50G, the self-cleavage turned out to be 0.19.
In the case of A35G C50A it was 0.326; in that of C37A C48A, 0.189; in that of A35U U63C, 0.152.
Turning to A35U G57A, the self-cleavage turned out to be 0.193.
In the case of A35G G51U, the self-cleavage came to 0.949.
A35G G51A: the self-cleavage worked out at 0.964.
G34U A39G: the self-cleavage worked out at 1.15.
G34U A39U: the self-cleavage turned out to be 1.14.
Take A36C C66G: the self-cleavage was found to be 0.131.
The figure for A35U U53C is 1.04; for A35U U53G it is 0.429.
For C37G C66A, the self-cleavage worked out at 0.207.
Take A36U A41G: the self-cleavage stood at 0.476.

The record behind these values is the RNAGym collection of RNA variant scans (doi:10.7554/elife.80360).
